T1: ADAM8 (Homo sapiens, UniProt P78325)
T1 construct: FLAG (C); made in house; host or cells: Sf9 insect cells (baculovirus, pFastBac1)
T1 sequence (P78325 200-400 limits assumed): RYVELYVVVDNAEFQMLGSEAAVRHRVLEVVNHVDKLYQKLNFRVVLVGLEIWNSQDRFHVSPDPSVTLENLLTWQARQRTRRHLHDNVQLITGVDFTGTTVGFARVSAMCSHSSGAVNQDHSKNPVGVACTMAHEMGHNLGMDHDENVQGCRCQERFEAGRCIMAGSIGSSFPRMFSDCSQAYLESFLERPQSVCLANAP

T2: ADAM15 (Homo sapiens, UniProt Q13444)
T2 construct: FLAG (C); made in house; host or cells: Sf9 insect cells (baculovirus, pFastBac1)
T2 sequence (Q13444 213-414 limits assumed): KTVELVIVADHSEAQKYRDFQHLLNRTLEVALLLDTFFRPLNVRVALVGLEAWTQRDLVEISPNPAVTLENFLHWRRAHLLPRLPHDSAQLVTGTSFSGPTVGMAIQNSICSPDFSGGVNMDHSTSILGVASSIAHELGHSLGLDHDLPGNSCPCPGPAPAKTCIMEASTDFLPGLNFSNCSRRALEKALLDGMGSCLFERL

T3: MDC-L (Homo sapiens, UniProt Q9UKQ2)
T3 construct: FLAG (C); made in house; host or cells: Sf9 insect cells (baculovirus, pFastBac1)
T3 sequence (Q9UKQ2 204-399 limits assumed): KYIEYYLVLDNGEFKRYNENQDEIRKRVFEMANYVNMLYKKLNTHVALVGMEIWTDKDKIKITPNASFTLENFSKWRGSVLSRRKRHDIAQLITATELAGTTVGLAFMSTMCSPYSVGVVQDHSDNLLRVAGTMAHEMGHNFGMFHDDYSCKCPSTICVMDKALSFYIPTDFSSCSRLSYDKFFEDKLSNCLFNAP

T4: CatE1 FRET peptide X-KPAKFFRL-Z (not fully specified)
T4 chain: KPAKFFRL


Legend:
ADAM8 [1] = target: T1, ADAM8; assay: FRET peptide substrate screening, ADAM8; type: biochemical; design: key: from one star (*) to five stars (*****) to indicate weaker to more potent substrates respectively; from one star (*) to five stars (*****) to indicate weaker to more potent substrates respectively; from one star (*) to five stars (*****) to indicate weaker to more potent substrates respectively; from one star (*) to five stars (*****) to indicate weaker to more potent substrates respectively; (—) = no detectable activity; details: FRET peptide 20 uM, room temperature
Description: (§1) Forty nine different peptides were synthesized for testing protease activity. The peptides comprised (i) a collection of substrates for other proteases, as well as (ii) a number of sequences corresponding to membrane proximal cleavage sites of various proteins postulated to be released by metalloproteases (including those published by (Roghani et al., 1999) for ADAM9/MDC9). In order to use the principle of fluorescence resonance energy transfer, or FRET, for the assay, the peptides were labelled at the C-terminus with Dabcyl and at the N-terminus with Edans. Thus cleavage of the peptides can be monitored by the increase in Edans fluorescence at 460 nm (excitation 360 nm) as a result of the decrease in proximity of the Dabcyl quencher. The assay was performed by diluting the ADAM8, ADAM15, MDC-L, or ADAM17 (50 to 100 ng of protein, one to two picomoles) in assay buffer, 10 mM HEPES, pH 7.5, containing 0.001% Brij35. The reaction was initiated by the addition of peptide substrate to a final concentration of 20 uM. The assays were typically run for 20 to 60 minutes at room temperature and the slope of the kinetic increase in fluorescence was determined to calculate the rate of the reaction. If necessary, it was possible to stop the reaction at a certain time by the addition of 1/10th volume of 1M NaOAc (sodium acetate), pH 3.5.
(§2) This peptide was cleaved by all enzymes, and thus was chosen to represent a standard by which to compare the relative activity of the various enzymes for their potential to cleave the various peptide substrates.

ADAM15 = target: T2, ADAM15; assay: FRET peptide substrate screening, ADAM15; type: biochemical; design: key: from one star (*) to five stars (*****) to indicate weaker to more potent substrates respectively; from one star (*) to five stars (*****) to indicate weaker to more potent substrates respectively; from one star (*) to five stars (*****) to indicate weaker to more potent substrates respectively; from one star (*) to five stars (*****) to indicate weaker to more potent substrates respectively; (—) = no detectable activity; details: FRET peptide 20 uM, room temperature
Description: as §1, §2

MDC-L = target: T3, MDC-L; assay: FRET peptide substrate screening, MDC-L; type: biochemical; design: key: from one star (*) to five stars (*****) to indicate weaker to more potent substrates respectively; from one star (*) to five stars (*****) to indicate weaker to more potent substrates respectively; from one star (*) to five stars (*****) to indicate weaker to more potent substrates respectively; from one star (*) to five stars (*****) to indicate weaker to more potent substrates respectively; (—) = no detectable activity; details: FRET peptide 20 uM, room temperature
Description: as §1, §2

ADAM17 = target: T5, ADAM17 (Homo sapiens, UniProt P78536); assay: FRET peptide substrate screening, ADAM17; type: biochemical; design: key: from one star (*) to five stars (*****) to indicate weaker to more potent substrates respectively; from one star (*) to five stars (*****) to indicate weaker to more potent substrates respectively; from one star (*) to five stars (*****) to indicate weaker to more potent substrates respectively; from one star (*) to five stars (*****) to indicate weaker to more potent substrates respectively; (—) = no detectable activity; details: FRET peptide 20 uM, room temperature
T5 construct: made in house
Description: as §1, §2

ADAM8 [2] = target: T1, ADAM8; assay: Kinetic analysis of the affinity of ADAM8 for cleavage of 4 peptides; type: biochemical; details: for K0.5 (substrate concentration at which the enzyme activity was 50% of the Vmax): ADAM8, 30 minutes at room temperature, by inspection of the fitted curves; for Cleavage site of ADAM8 within the peptide: carot marks the cleavage site
Description: To confirm the screening assay, ADAM8 was further analyzed for its catalytic rate for 4 different peptides. The assay was performed by diluting the ADAM8 in assay buffer, 10 mM HEPES, pH 7.5, containing 0.001% Brij35. […] The assay was run for 30 minutes at room temperature. […] The curves were fitted to the data with the program Grafit (Erithacus Software). […] The Vmax for each substrate was calculated by non-linear fitting of the data. The substrate concentration at which the enzyme activity was 50% of the Vmax (designated “K0.5”) was determined by inspection of the fitted curves. Table 2 also provides the cleavage site of ADAM8 within each peptide, as indicated by a carot within the peptide sequence.

[3] = target: T4, CatE1 FRET peptide X-KPAKFFRL-Z

T5 sequence (P78536 215-824, species assumed): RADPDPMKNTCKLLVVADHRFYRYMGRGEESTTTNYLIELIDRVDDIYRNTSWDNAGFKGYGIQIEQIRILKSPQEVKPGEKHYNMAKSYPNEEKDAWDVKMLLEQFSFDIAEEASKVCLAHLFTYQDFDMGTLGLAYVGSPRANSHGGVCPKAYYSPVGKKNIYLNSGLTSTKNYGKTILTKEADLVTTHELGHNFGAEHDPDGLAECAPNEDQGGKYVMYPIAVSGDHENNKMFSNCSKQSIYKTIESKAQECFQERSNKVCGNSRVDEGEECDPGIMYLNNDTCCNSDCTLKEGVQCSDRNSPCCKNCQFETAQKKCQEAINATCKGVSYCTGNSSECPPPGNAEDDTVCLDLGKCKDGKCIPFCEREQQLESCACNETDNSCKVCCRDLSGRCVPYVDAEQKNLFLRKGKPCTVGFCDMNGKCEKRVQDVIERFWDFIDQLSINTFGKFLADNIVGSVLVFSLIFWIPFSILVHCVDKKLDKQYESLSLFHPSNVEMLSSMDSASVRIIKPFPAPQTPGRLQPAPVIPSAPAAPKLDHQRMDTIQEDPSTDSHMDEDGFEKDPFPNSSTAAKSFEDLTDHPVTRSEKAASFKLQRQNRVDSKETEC

Row | Relative proteolytic activity ADAM8 (ADAM8 [1]) | Relative proteolytic activity ADAM15 (ADAM15) | Relative proteolytic activity MDC-L (MDC-L) | Relative proteolytic activity ADAM17 (ADAM17) | K0.5 (substrate concentration at which the enzyme activity was 50% of the Vmax) (ADAM8 [2]) [µM] | Cleavage site of ADAM8 within the peptide (ADAM8 [2]) | Molecule | fluorometric proteolytic assay / FRET peptide zymography [3]
1 | *** | *** | *** | (—) |  |  | X-PPVAASSLRN-Z ({Edans‑E}-PPVAASSLRN-{dabcyl‑K}) [KL1, FRET peptide substrate; X = Edans-E; Z = dabcyl-K] | 
2 | *** | *** | *** | (—) |  |  | X-PSAAQTARQHP-Z ({Edans‑E}-PSAAQTARQHP-{dabcyl‑K}) [TNFB2, FRET peptide substrate; X = Edans-E; Z = dabcyl-K] | 

Continued, molecule first:

Row | Molecule | Relative proteolytic activity ADAM8 (ADAM8 [1]) | Relative proteolytic activity ADAM15 (ADAM15) | Relative proteolytic activity MDC-L (MDC-L) | Relative proteolytic activity ADAM17 (ADAM17) | K0.5 (substrate concentration at which the enzyme activity was 50% of the Vmax) (ADAM8 [2]) [µM] | Cleavage site of ADAM8 within the peptide (ADAM8 [2]) | fluorometric proteolytic assay / FRET peptide zymography [3]
3 | Z-LAQAVRSSSR-X ({dabcyl‑K}-LAQAVRSSSR-{Edans‑E}) [TNFα(−4 + 6), FRET peptide substrate; X = Edans-E; Z = dabcyl-K] | * | * | * | *** |  |  | 
4 | X-PLAQAVRSSS-Z ({Edans‑E}-PLAQAVRSSS-{dabcyl‑K}) [TNFα, FRET peptide substrate; X = Edans-E; Z = dabcyl-K] | *** | *** | *** | *** | 5 | XPLAQAVRS^SSZ | 
5 | X-KPAKFFRL-Z ({Edans‑E}-KPAKFFRL-{dabcyl‑K}) [CatEl, FRET peptide substrate; X = Edans-E; Z = dabcyl-K] | ***** | ***** | ***** | (—) | 2.5 | XKPAKF^FRLZ | 
6 | X-RVRRALPS-Z ({Edans‑E}-RVRRALPS-{dabcyl‑K}) [AD8P2, FRET peptide substrate; X = Edans-E; Z = dabcyl-K] | *** | *** | *** | (—) |  |  | 
7 | X-RTAAVFRP-Z ({Edans‑E}-RTAAVFRP-{dabcyl‑K}) [AD8P, FRET peptide substrate; X = Edans-E; Z = dabcyl-K] | * | * | * | ***** |  |  | 
8 | Z-RGVVNASSRLAK-X ({dabcyl‑K}-RGVVNASSRLAK-{Edans‑E}) [KAS-1, FRET peptide substrate; X = Edans-E; Z = dabcyl-K] | *** | *** | *** | (—) |  |  | 
9 | Z-RPLGLAR-X ({dabcyl‑K}-RPLGLAR-{Edans‑E}) [Mat, FRET peptide substrate; X = Edans-E; Z = dabcyl-K] | *** | *** | *** | *** |  |  | 
10 | soluble recombinant human ADAM8 with pro- and protease domains and C-terminal FLAG epitope (inactive precursor form) (protein) IAPSRPWALMEQYEVVLPWRLPGPRVRRALPSHLGLHPERVSYVLGATGHNFTLHLRKNRDLLGSGYTETYTAANGSEVTEQPRGQDHCFYQGHVEGYPDSAASLSTCAGLRGFFQVGSDLHLIEPLDEGGEGGRHAVYQAEHLLQTAGTCGVSDDSLGSLLGPRTAAVFRPRPGDSLPSRETRYVELYVVVDNAEFQMLGSEAAVRHRVLEVVNHVDKLYQKLNFRVVLVGLEIWNSQDRFHVSPDPSVTLENLLTWQARQRTRRHLHDNVQLITGVDFTGTTVGFARVSAMCSHSSGAVNQDHSKNPVGVACTMAHEMGHNLGMDHDENVQGCRCQERFEAGRCIMAGSIGSSFPRMFSDCSQAYLESFLERPQSVCLANAP |  |  |  |  |  |  | showed no activity in the fluorometric proteolytic assay

Source: patent US6458552B1, “Metalloprotease peptide substrates and methods” (Ortho-McNeil Pharmaceutical, Inc., priority 2000, dated 2002)
